Results on 54 sequences are retold here after the supplement of paper PMC11780869.

This data set deals with Bacillus subtilis. The experiment in a line: cleaved RNA product abundance (RNA/gDNA barcode ratio) relative to median wild-type variant (ratio to wild type); higher = more accumulation of the downstream cleavage product. In short, it runs like this: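 B. subtilis strains with chromosomally integrated reporter mRNAs (truncated aprE or tetM) holding barcoded, mutagenized RNase Y cleavage-site windows grew in LB at 37°C from OD600 0.0003 to 0.3. Cleaved product abundance is each construct's RNA:gDNA barcode ratio, scaled to the median construct with the unmutated site. It came from sequencing barcodes of gel-selected, reverse-transcribed cleaved RNA and of genomic DNA.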

The mark [1] stands for this setting: experiment (reporter, strain, medium): exp 4a: truncated aprE reporter, strain BJT201 with 2% xylose (RNase J1 expressed), cleavage site: cggR-gapA (positions -7 to +36 mutated).
Where [2] appears, read: experiment (reporter, strain, medium): exp 2b: truncated aprE reporter, strain BJT200, cleavage site: cggR-gapA (positions -7 to +36 mutated).
Setting [3] is: experiment (reporter, strain, medium): exp 6: tetM reporter, strain 168, cleavage site: cggR-gapA (positions -7 to +36 mutated).
Setting [4] is: experiment (reporter, strain, medium): exp 8a: truncated aprE reporter, strain BJT201 with 2% xylose (RNase J1 expressed), cleavage site: glnRA (positions -5 to +31 mutated).

As for “ACAGACGAAGGAGCCGCAAAAAAGTTATTAAGGTATAAATAATCCCTCAATATAAATATCTCTCACTTATTTAAA”, under setting [1], the “cleaved RNA product abundance” value came out at 0.0805.
Take “ACAGACGAAGGAGCCGCAATGAAGTTATTAAGGAATGAATAATCCCTCAATATAAATATCTCTCACTTATTTAAA”: the “cleaved RNA product abundance” value was 0.131 under setting [2] and 0.102 under setting [1].
For “ACAGACGAAGGAGCCGCAAAAAAGTTATTAAGAGATGAATAATTCCTCAATATAAATATCTCTCACTTATTTAAA”, the “cleaved RNA product abundance” value under setting [1] was determined as 0.159.
For “ACAGACGAAGGAGCCGAAAAGAAGTTATTAAGGGATGAATAATCCCTCAATATAAATATCTCTCACTTATTTAAA”, under setting [3], the “cleaved RNA product abundance” value stood at 0.794.
As for “ACAGACGAAGGAGCCGCAAAGAAGTTAATAAGGGATGAATAATCCCACAATATAAATATCTCTCACTTATTTAAA”, the “cleaved RNA product abundance” value was found to be 0.17 under setting [2] and 0.253 under setting [1].
For “ACAGACGAAGGAGCCGCAAAGAAGTTATTAAGAGATGAATAACCCCTCAATATAAATATCTCTCACTTATTTAAA”, the “cleaved RNA product abundance” value under setting [1] is 0.147.
In the case of “ACAGACGAAGGAGCCGCAAAGAAGTTATTAAAGGATGAATAATCCCTCAATATAAACATCTCTCACTTATTTAAA”, the “cleaved RNA product abundance” value under setting [1] is 0.206.
Take “ACAGACGAAGGAGCCGCAAAGAAGTTATTAAGGGATGAATACTACCTCAATATAAATATCTCTCACTTATTTAAA”: the “cleaved RNA product abundance” value amounted to 0.124 under setting [2] and 0.168 under setting [1].
Turning to “ACAGACGAAGGAGCCGCAAATAAGTAATTAAGGGATGAATAATCCCTCAATATAAATATCTCTCACTTATTTAAA”, the “cleaved RNA product abundance” value under setting [2] was 0.246 and the “cleaved RNA product abundance” value under setting [1] turned out to be 0.339.
Take “CGACATGTCCCGCTTCTTTCATTAATCCGTAAGCAACTGATTTGCTATATACATTTACCTTTTAAGAGGAGGAAT”: under setting [4], the “cleaved RNA product abundance” value was 0.25.
Take “ACAGACGAAGGAGCCGCAAATAAGTTATTAAGGGATGAATAATCCCTCAATATAAATATATCTCACTTATTTAAA”: the “cleaved RNA product abundance” value under setting [1] was found to be 0.814.
For the sequence “ACAGACGAAGGAGCCGCAAAGAAGTTATTAAGGGATGAATAATCCCTCAATATATATATCTCTCACTTATTTAAA”, the “cleaved RNA product abundance” value under setting [2] was determined as 0.874, the “cleaved RNA product abundance” value under setting [1] came out at 0.885 and the “cleaved RNA product abundance” value under setting [3] turned out to be 0.832.
As to “ACAGACGAAGGAGCCGCAAAGAAGTTATTAAGGGATGATTAATGCCTCAATATAAATATCTCTCACTTATTTAAA”, the “cleaved RNA product abundance” value under setting [2] came out at 0.117.
Take “ACAGACGAAGGAGCCGCAAAGAAGTTATTAAGGGTTGAATAATCCTTCAATATAAATATCTCTCACTTATTTAAA”: the “cleaved RNA product abundance” value under setting [1] turned out to be 0.358.
For “ACAGACGAAGGAGCCGCAAAGAAGTTACTAAGGGGTGAATAATCCCTCAATATAAATATCTCTCACTTATTTAAA”, the “cleaved RNA product abundance” value under setting [2] was 0.144.
The same measure, in the same setting: the figure for “ACAGACGAAGGAGCCGCAAAGAAGTTATTATGGGATGTATAATCCCTCAATATAAATATCTCTCACTTATTTAAA” is 0.31.
“CGACATGTCCCGCTTCTTTCATTACTCCCCTAGCAACTGTTTGGCTATATATATTTACCTTTTAAGAGGAGGAAT”: the “cleaved RNA product abundance” value under setting [4] is 0.221.
On to “ACAGACGAAGGAGCCGCAAACAAGTTATTAAAGGATGAATAATCCCTCAATATAAATATCTCTCACTTATTTAAA”, for which the “cleaved RNA product abundance” value by setting is: under setting [2], 0.121; under setting [1], 0.116.
Take “ACAGACGAAGGAGCCGCAAAGAAGTTAATAAGGGATGAATAATGCCTCAATATAAATATCTCTCACTTATTTAAA”: the “cleaved RNA product abundance” value was found to be 0.121 under setting [2] and 0.124 under setting [1].
Regarding “CGACATGTCCCGCTTCTTTCATTAATCCCTTAGCAACTGTTTTGCTATATAGATTTACCTTTTAAGAGGAGGAAT”, under setting [4], the “cleaved RNA product abundance” value turned out to be 0.355.
Regarding “ACAGACGAAGGAGCCGCAAAGAAGTTATTAAGGGATGGATAATCCCTCAATATAAAAATCTCTCACTTATTTAAA”, the “cleaved RNA product abundance” value under setting [1] is 0.356.
With “ACAGACGAAGGAGCCGCAAAGAATTTATTAATGGATGAATAATCCCTCAATATAAATATCTCTCACTTATTTAAA”, the “cleaved RNA product abundance” value came out at 0.105 under setting [2] and 0.111 under setting [1].
Consider “CGACATGTCCCGCTTCTTTCATTAATCCGTTATCAACTGTTTTGCTATATAGATTTACCTTTTAAGAGGAGGAAT”, for which, under setting [4], the “cleaved RNA product abundance” value worked out at 0.418.
As for “ACAGACGAAGGAGCCGCAAAAAAGTTGTTAAGGGATGAATAATCCCTCAATATAAATATCTCTCACTTATTTAAA”, the “cleaved RNA product abundance” value was 0.388 under setting [2] and 0.355 under setting [1].
As for “CGACATGTCCCGCTTCTTTCATTAATTCGTTAGCAACTGTTTTGCTAAATACATTTACCTTTTAAGAGGAGGAAT”, the “cleaved RNA product abundance” value under setting [4] worked out at 0.362.
On to “ACAGACGAAGGAGCCGCAAAGAAGTTCTTAAGGGAAGAATAATCCCTCAATATAAATATCTCTCACTTATTTAAA”, for which the “cleaved RNA product abundance” value under setting [1] was found to be 0.113.
“CGACATGTCCCGCTTCTTTCATTAATCTGTTAGCAATTGTTTTGCTATATACATTTACCTTTTAAGAGGAGGAAT”: under setting [4], the “cleaved RNA product abundance” value was 1.59.
As for “ACAGACGAAGGAGCCGCAAAGGAGTTATTAAGGGATGAAGAATCCCTCAATATAAATATCTCTCACTTATTTAAA”, the “cleaved RNA product abundance” value under setting [1] was found to be 0.859.
In the case of “ACAGACGAAGGAGCCGCAAAGAAGTTATTAAGAGATCAATAATCCCTCAATATAAATATCTCTCACTTATTTAAA”, the “cleaved RNA product abundance” value came out at 0.0924 under setting [2] and 0.0785 under setting [1].
Regarding “ACAGACGAAGGAGCCGCAAAGAAGATATTAAGGGATGAATAATCCATCAATATAAATATCTCTCACTTATTTAAA”, the “cleaved RNA product abundance” value under setting [1] came to 0.207.
For “ACAGACGAAGGAGCCGCAAAGAAGCTATTAAGGGATGAATAATCCCTCAATATAAAAATCTCTCACTTATTTAAA”, the “cleaved RNA product abundance” value under setting [1] is 0.713.
For the sequence “ACAGACGAAGGAGCCGCGAAGAAGTTATTTAGGGATGAATAATCCCTCAATATAAATATCTCTCACTTATTTAAA”, under setting [2], the “cleaved RNA product abundance” value was determined as 0.572.
“CGACATGTCCCGCTTCTTTCATTAATCCTTTAGCAACGGTTTTGCTATATACATTTACCTTTTAAGAGGAGGAAT”: the “cleaved RNA product abundance” value under setting [4] came out at 0.7.
“ACAGACGAAGGAGCCGCAAAAAAGTTATTAAGGGATGAATAATCCCTCAATATGAATATCTCTCACTTATTTAAA”: under setting [2], the “cleaved RNA product abundance” value was 0.135.
“CGACATGTCCCGCTTCTTTCATTAATCCGTTAGCAACTGTTTTGCTATGTACATTTACCTTTTAAGAGGAGGAAT”: the “cleaved RNA product abundance” value under setting [4] was found to be 0.215.
Regarding “ACAGACGAAGGAGCCGCAAAGAAGTTATTAAGTGATTAATAATCCCTCAATATAAATATCTCTCACTTATTTAAA”, the “cleaved RNA product abundance” value runs as follows: under setting [2], 0.112; under setting [1], 0.0979.
For the sequence “CGACATGTCCCGCTTCTTTCATTAATCCGTTAACAATTGTTTTGCTACATACATTTACCTTTTAAGAGGAGGAAT”, under setting [4], the “cleaved RNA product abundance” value was 0.135.
Turning to “CGACATGTCCCGCTTCTTTCATTAATCTGATAGCAACTGTTTTGCTATATACATTTACCTTTTAAGAGGAGGAAT”, the “cleaved RNA product abundance” value under setting [4] came out at 0.81.
Turning to “ACAGACGAAGGAGCCGCAAAGATGTTATTAAGGGATGAATATTCCCTCAATATAAATATCTCTCACTTATTTAAA”, the “cleaved RNA product abundance” value was found to be 0.623 under setting [2] and 0.556 under setting [1].
With “ACAGACGAAGGAGCCGCAAAGAAGCTATTAAGGCATGAATAATCCCTCAATATAAATATCTCTCACTTATTTAAA”, under setting [2], the “cleaved RNA product abundance” value amounted to 0.0626.
With “ACAGACGAAGGAGCCGCAAAGAAGTTATTAAGGGATGAATTATCCCTCAATATATATATCTCTCACTTATTTAAA”, the “cleaved RNA product abundance” value under setting [1] was 0.616.
As for “CGACATGTCCCGCTTCTTTCATTACTCCGTTAGCAACTGTTTTGCTATTTACATTTACCTTTTAAGAGGAGGAAT”, the “cleaved RNA product abundance” value under setting [4] came to 0.151.
Turning to “ACAGACGAAGGAGCCGCAAAGAAGTTATTAAGCGATGAATAATCCCTCAATATTAATATCTCTCACTTATTTAAA”, the “cleaved RNA product abundance” value under setting [1] is 0.151.
On to “ACAGACGAAGGAGCCGCAAAGAAGTTATTAAGGGAAGAATAACCCCTCAATATAAATATCTCTCACTTATTTAAA”, for which the “cleaved RNA product abundance” value runs as follows: under setting [2], 0.283; under setting [1], 0.369.
In the case of “ACAGACGAAGGAGCCGCAAAGAAGTTATTAAGGGATGAATAATCACTCAATATAGATATCTCTCACTTATTTAAA”, the “cleaved RNA product abundance” value runs as follows: under setting [2], 0.143; under setting [1], 0.116.
As for “CGACATGTCCCGCTTCTTTCATTAGTCCGTTAGCAACTGTTTTGCTATATACATTTACCTTTTAAGAGGAGGAAT”, the “cleaved RNA product abundance” value under setting [4] came to 0.767.
As to “ACAGACGAAGGAGCCGCTAAGAATTTATTAAGGGATGAATAATCCCTCAATATAAATATCTCTCACTTATTTAAA”, the “cleaved RNA product abundance” value under setting [1] stood at 0.468.
In the case of “ACAGACGAAGGAGCCGCAAAGAAGTTATTAAGGAATGAATAATCCCTCAGTATAAATATCTCTCACTTATTTAAA”, under setting [1], the “cleaved RNA product abundance” value was 0.15.
For “CGACATGTCCCGCTTCTTTCATTAATCCGTTAGCAACGGTTTTGTTATATACATTTACCTTTTAAGAGGAGGAAT”, the “cleaved RNA product abundance” value under setting [4] worked out at 0.364.
For “ACAGACGAAGGAGCCGCAAAGAACTTAATAAGGGATGAATAATCCCTCAATATAAATATCTCTCACTTATTTAAA”, under setting [1], the “cleaved RNA product abundance” value was determined as 0.167.
Regarding “ACAGACGAAGGAGCCGCAGAGAAGTTATTAAGGGCTGAATAATCCCTCAATATAAATATCTCTCACTTATTTAAA”, the “cleaved RNA product abundance” value under setting [1] is 0.694.
On to “CGACATGTCCCGCTTCTTTCATTAAACCGTTAGCAACTGTTTTGTTATATACATTTACCTTTTAAGAGGAGGAAT”, for which the “cleaved RNA product abundance” value under setting [4] was found to be 0.313.
With “ACAGACGAAGGAGCCGCAAAGAAGTTATTAAGGAATGAATAATACCTCAATATAAATATCTCTCACTTATTTAAA”, the “cleaved RNA product abundance” value by setting is: under setting [2], 0.121; under setting [1], 0.124.
In the case of “ACAGACGAAGGAGCCGCAAAGAAGTTATTAAGAGATGAATAATACCTCAATATAAATATCTCTCACTTATTTAAA”, the “cleaved RNA product abundance” value turned out to be 0.106 under setting [2] and 0.109 under setting [1].
